Tests used:
MS2 coat protein [1] = assay: apparent KD of MS2 coat protein; designed switch direction (-1 OFF switch, 1 ON switch): -1; higher = weaker reporter binding; settings: Eterna round: R98
Description: (§1)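 RNA-MaP: designed FMN/MS2 RNA switches (84 nt design region) are transcribed on-chip within common flanks and titrated with SNAP-549-labelled MS2 coat protein (about 1-3000 nM) in 100 mM Tris pH 7.5, 80 mM KCl, 4 mM MgCl2, without or with 200 uM FMN. Median apparent KD per design; activation ratio = KD,OFF / KD,ON.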

MS2 coat protein [2] = assay: apparent KD of MS2 coat protein; designed switch direction (-1 OFF switch, 1 ON switch): 1; higher = weaker reporter binding; settings: Eterna round: R98
Description: as §1

Sequence	apparent KD of MS2 coat protein (MS2 coat protein [1]; input ligand: FMN 200 uM)	apparent KD of MS2 coat protein (MS2 coat protein [1]; input ligand: none)	apparent KD of MS2 coat protein (MS2 coat protein [2]; input ligand: FMN 200 uM)	apparent KD of MS2 coat protein (MS2 coat protein [2]; input ligand: none)
AUCUAUCGGUCAGGAUAUUCACAUGAGGAUCACCCAUGUGAGCCUCGGCCAAAGUGAACGCAUGUGAAGAAGGGACGGCAAAAC [Atceen]	33.4 nM	27.8 nM		
CAUGUAUGGUGAGGAUAUGCAAAGGAUCACCUUGUAGAAGGCAUCAGGUAGAAGGUGCAGAGGAUCACCCUGUAAGGAUAUAUC [pwkr2 ssNG1 DX.23]			72 nM	249 nM
CCAGAUAUAUGAGGAUAUCGAGUGGAAUACACUCGAGAAGGUAUGUGAAAACAUGAGGAUCACCCAUGUGAUUAAUAAUCUGGA [SameState NG1 #1]			22.4 nM	16.8 nM
CCGUUGCAAAUAAAACAUGAGGAUCACCCAUGUGAGUCUCAUGAGGAUAUGCAGGUCAAAGACUUGCAGAAGGCAUGGCGACGG [Mat - Same State NG 3 - JL Mod - D67]			118 nM	1520 nM
CGAACCACUUAGGUACCACACAUGAGGAUCACCCAUGUAUCACAGGAUAUGCAUGAUAUAUUCAGGCAGAAGGGUGAUCUUACC [Esananti]			265 nM	24.7 nM
CUGUGGGCCAUAGGAUAUGCGCAGAAUUAGCAAGCAGAAGGGUGGAUCGGACAAUAAUAACUACAUGAGGAUCACCCAUGUGCU [Lelegeza]			55.5 nM	139 nM
GAAUAAUAGAUCCAAUUUAUCUACAUGAGGAUCACCCAUGUGCAGGAUAUGCUAAAAUUUAAUAAGCAGAAGGGCAAGAACGGC [JR_ExcNG3_Sub016]	374 nM	104 nM		
GACGAAUUCUUAGGAUAUCGAGUGGAUAACACUCGAGAAGGAAGAUAUACCUGAGGAUCACCCAGGUUAAACUGGACGUCAAUA [Same State NG1 - A3C, U17G Submission 8C]			53.6 nM	205 nM
GACGGAUUCUUAGGAUAUGCUCAGGAUAACUGAGCAGAAGGAAGAAUAACCUGAGGAUCACCCAGGUAAUACUGAACGUCAAUA [Same State NG1 - A3C, U17G Submission 9B]			20.7 nM	64.1 nM
GAGCAGGUAAAUAAACUCAAUUACAUGAGGAUCACCCAUGUAUAGGAUAUCGUCAGGAAUACUGACGAGAAGGAUACAUCCUGC [Exclusion NG 3/14-A2]	59.2 nM	19.7 nM		
GCAGAAGGUGCGGAGGAUCACCCUGUAAGGAUAUGCAUUAGCAAGGAUAUACAGAGGAUCACCCUGUAGAAGGUGCACUUCAAA [pwkr2 ssNG3 DX.6]			779 nM	3160 nM
GCGCGCGCGCGCGCGCGCGCGCACAUGAGGAUCACCCAUGUAUAGGAUAUCGAUUGUUGUUGAUUCGAGAAGGGUAGCGCGCGC [Exclusion NG3]	44.1 nM	39.4 nM		
GGAGACCUCACAGGAUAUGCUGGACUUUGUCCAGCAGAAGGGUGAACAUGAGGAUCACCCAUGUAGGUCUCCAAAAUAUUUAAU [Denovo 50]			989 nM	100 nM
UAACAGCGAAGAUAAUAAUGAAUACAUGAGGAUCACCCAUGUAAGGAUAUCGUCAGGAAUACUGACGAGAAGGUACAUACGCUG [Exclusion NG 3/17-B2]	23.2 nM	16.7 nM		
UCACUCACGUUAGGAUAUGGAUCGGAAAACGAUCCAGAAGGAACCUGCAAACAAGAGGAUCACCCUUGUUCCAAUAACGAGUGA [SameSame 6 - Jieux - Same State NG 1]			40.9 nM	51.2 nM

Reference: the supplement of paper PMC9170038
